Experimental data from publication PMC3814767, “Target Specificity of the E3 Ligase LUBAC for Ubiquitin and NEMO Relies on Different Minimal Requirements* ^([image sbox.jpg])” (The Journal of Biological Chemistry, 2013).

Target: T1, N-terminal TAMRA-labeled ubiquitin (wild type) (UniProt P0CG48 1-76, TAMRA (5-carboxytetramethylrhodamine) label on the N-terminus)
T1 construct: also called ^TAMRAubiquitin; ^TAMRAUb; source: chemically synthesized (according to El Oualid et al.), purified over Resource S and gel filtration (Superdex 75)
Experiment: fluorescence polarisation; TAMRA-ubiquitin 1 nM, HOIP^LDD in 1:1 serial dilutions, three repeats; 20 mM Hepes pH 7.5, 150 mM NaCl, 5 mM βME, 1 g/liter chicken ovalbumin; fit to a 1:1 non-linear binding model
Conditions: both partners purified

B1: HOIP linear ubiquitin chain determining domain (LDD) (domain or fragment, UniProt Q96EP0 910-1072, looked up)
chain: KCPEPNCRVKKSLHGHHPRDCLFYLRDWTALRLQKLLQDNNVMFNTEPPAGARAVPGGGCRVIEQKEVPNGLRDEACGKETPAGYAGLCQAHYKEYLVSLINAHSLDPATLYEVEELETATERYLHVRPQPLAGEDPPAYQARLLQKLTEEVPLGQSIPRRRK
notes: HOIP (RNF31), the C-terminal linear ubiquitin chain determining domain (LDD); also called HOIP^LDD; HOIP LDD domain
  Kd: 160 ± 40 µM
